Assay results taken from US20140004106A1.

Key:
[1] = target: 28mer peptide of the CXCR5 antigen; assay: ELISA potency (binding); 100 mg/mL, Arginine (30), 7 days at 40°C
[2] = target: 28mer peptide of the CXCR5 antigen; assay: Potency (Antigen ELISA); stored +25°C, 1 month
[3] = target: 28mer peptide of the CXCR5 antigen; assay: Antigen-ELISA; Citrate 10 mM pH 5.50, after mechanical stress 350 rpm 2.5 h
[4] = target: 28mer peptide of the CXCR5 antigen; assay: Antigen-ELISA; Citrate 10 mM pH 6.50, after 1 week at +40°C
[5] = target: 28mer peptide of the CXCR5 antigen; assay: Antigen-ELISA; Histidine 10 mM pH 6, after 1 week at +40°C
[6] = target: 28mer peptide of the CXCR5 antigen; assay: Antigen-ELISA; Arginine 10 mM pH 8, T0
[7] = target: 28mer peptide of the CXCR5 antigen; assay: Antigen-ELISA; standard run with LA_09_004_3
[8] = target: 28mer peptide of the CXCR5 antigen; assay: Ag-ELISA; DS in PBS, -20°C, 1 month
[9] = target: 28mer peptide of the CXCR5 antigen; assay: Antigen-ELISA; citrate 10 mM prototype C, T0
[10] = target: 28mer peptide of the CXCR5 antigen; assay: Antigen-ELISA; PBS 155 mM, polypropylene, 24 h +40°C
[11] = target: 28mer peptide of the CXCR5 antigen; assay: Antigen-ELISA; Citrate 10 mM pH 6.50, T0
[12] = target: 28mer peptide of the CXCR5 antigen; assay: Antigen-ELISA; Acetate 10 mM pH 5.00, after 1 week at +40°C
[13] = target: 28mer peptide of the CXCR5 antigen; assay: Antigen-ELISA; Citrate 10 mM pH 7.00, T0
[14] = target: 28mer peptide of the CXCR5 antigen; assay: Antigen-ELISA; Acetate 10 mM pH 5.50, after 1 week at +40°C
[15] = target: 28mer peptide of the CXCR5 antigen; assay: ELISA potency (binding); 100 mg/mL, Lysine (30) + NaCl (2), T zero
[16] = target: 28mer peptide of the CXCR5 antigen; assay: Antigen-ELISA; Histidine 10 mM pH 5.5, T0
[17] = target: 28mer peptide of the CXCR5 antigen; assay: ELISA potency (binding); 100 mg/mL, Arginine (20) + NaCl (2), 7 days at 40°C
[18] = target: 28mer peptide of the CXCR5 antigen; assay: Antigen-ELISA; TRIS 10 mM pH 8.5, after 1 week at +40°C
[19] = target: 28mer peptide of the CXCR5 antigen; assay: ELISA potency (binding); 100 mg/mL, Glycine (20), T zero
[20] = target: 28mer peptide of the CXCR5 antigen; assay: Antigen-ELISA; PB 10 mM pH 6.50, after 1 week at +40°C
[21] = target: 28mer peptide of the CXCR5 antigen; assay: Antigen-ELISA; PBS 155 mM pH 6.50, after mechanical stress 350 rpm 2.5 h
[22] = target: 28mer peptide of the CXCR5 antigen; assay: Antigen-ELISA; Histidine 10 mM pH 5.5, after 1 week at +40°C
[23] = target: 28mer peptide of the CXCR5 antigen; assay: Antigen-ELISA; PBS 155 mM pH 7.50, after mechanical stress 350 rpm 2.5 h
[24] = target: 28mer peptide of the CXCR5 antigen; assay: Antigen-ELISA; PBS 155 mM pH 7.00, after mechanical stress 350 rpm 2.5 h
[25] = target: 28mer peptide of the CXCR5 antigen; assay: Antigen-ELISA; standard run with LA_09_27C, T0
[26] = target: 28mer peptide of the CXCR5 antigen; assay: Antigen-ELISA; TRIS 10 mM pH 7.5, T0
[27] = target: 28mer peptide of the CXCR5 antigen; assay: Potency (Antigen ELISA); stored +5°C, 12 months

rel. potency [%] [1]: 143%
EC50 value (in comparison to reference) [2]: 121%
EC50 % [3]: 79%
EC50 % [4]: 46%
EC50 % [5]: 77%
EC50 % [6]: 121%
EC50 % [7]: 100%
EC50 % [8]: 132%
EC50 % [9]: 104%
EC50 % [10]: 107%
EC50 % [11]: 59%
EC50 % [12]: 102%
EC50 % [13]: 59.9%
EC50 % [14]: 94.9%
rel. potency [%] [15]: 130%
EC50 % [16]: 57%
rel. potency [%] [17]: 164%
EC50 % [18]: 237%
rel. potency [%] [19]: 170%
EC50 % [20]: 78.8%
EC50 % [21]: 79.3%
EC50 % [22]: 81%
EC50 % [23]: 71%
EC50 % [24]: 50%
EC50 % [25]: 100%
EC50 % [26]: 104%
EC50 value (in comparison to reference) [27]: 93%
B1: Lead CXCR5 Antibody (humanized IgG4 anti-CXCR5 antibody) (antibody, V domains shown)
VH: QVQLKESGPGLVAPSESLSITCTVSGFSLIDYGVNWIRQPPGKGLEWLGVIWGDGTTYYNPSLKSRLSISKDNSKSQVFLKVTSLTTDDTAMYYCARIVYWGQGTLVTVSA
VL: DIVMTQAAPSVAVTPGASVSISCRSSKSLLHSSGKTYLYWFLQRPGQSPQLLIYRLSSLASGVPDRFSGSGSGTAFTLRISRVEAEDVGVYYCMQHLEYPYTFGGGTKLEIKR
